Measured values published in patent publication US7514408.

Molecular target: β-secretase (enzyme preparation not stated for the inhibitor assays) (human) (UniProt P56817)
Assay: cell-based or functional assay

Chain of β-secretase (enzyme preparation not stated for the inhibitor assays) (human) (P56817 46-501 limits assumed): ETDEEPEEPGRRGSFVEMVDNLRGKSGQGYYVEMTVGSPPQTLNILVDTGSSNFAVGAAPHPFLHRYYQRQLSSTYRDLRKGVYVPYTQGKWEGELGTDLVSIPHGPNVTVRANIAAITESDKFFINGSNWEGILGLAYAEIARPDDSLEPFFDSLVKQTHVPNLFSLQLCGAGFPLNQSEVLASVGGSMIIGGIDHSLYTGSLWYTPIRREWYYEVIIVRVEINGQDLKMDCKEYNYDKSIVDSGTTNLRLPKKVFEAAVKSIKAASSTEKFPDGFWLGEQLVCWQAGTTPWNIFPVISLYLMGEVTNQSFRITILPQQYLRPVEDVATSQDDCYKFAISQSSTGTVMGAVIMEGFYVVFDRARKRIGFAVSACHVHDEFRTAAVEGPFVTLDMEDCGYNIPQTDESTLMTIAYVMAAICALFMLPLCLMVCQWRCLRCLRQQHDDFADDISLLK

IC50 in an MBP M125 assay (inhibition of β-secretase activity): 3000 nM
enzyme inhibition relative to the Swedish sequence: 100 times
Substance: Swedish mutant P13-P5′ peptide with P1′ aspartic acid replaced with a valine (D→V) (from UniProt P05067 659-676)
